Source: patent US7919276
Where two headings read alike, the source gives them in different places. Ends that are not written are not given here.

T1: lysine-acetylated histone H4 peptide SGRGKGG-AcK-GLGK
T1 chain: SGRGKGGKGLGK

T2: lysine-acetylated histone H4 peptide SGRGKGG-AcK-GLGK
T2 construct: also called H4 AcK-Peptide; AcK peptide
T2 peptide: SGRGKGGK(Ac)GLGK

T3: lysine-acetylated histone H4 peptide SGRGKGG-AcK-GLGK
T3 construct: also called AcK peptide; AcK-containing H4 peptide
T3 peptide: SGRGKGGK(Ac)GLGK

B1: P/CAF bromodomain Tyr802Ala mutant, Q92831 719-832 (protein)
chain: SKEPRDPDQLYSTLKSILQQVKSHQSAWPFMEPVKRTEAPGYYEVIRFPMDLKTMSERLKNRYYVSKKLFMADLQRVFTNCKEANAAESEYYKCANILEKFFFSKIKEAGLIDK
modifications: here or on the partner: acetyl-lysine (AcK) at Lys8
B2: P/CAF bromodomain Val752Ala mutant, Q92831 719-832 (protein)
chain: SKEPRDPDQLYSTLKSILQQVKSHQSAWPFMEPAKRTEAPGYYEVIRFPMDLKTMSERLKNRYYVSKKLFMADLQRVFTNCKEYNAAESEYYKCANILEKFFFSKIKEAGLIDK
modifications: here or on the partner: acetyl-lysine (AcK) at Lys8
B3: P/CAF bromodomain (residues 719-832 of human p300/CBP-associated factor), wild-type (other)
chain: SKEPRDPDQLYSTLKSILQQVKSHQSAWPFMEPVKRTEAPGYYEVIRFPMDLKTMSERLKNRYYVSKKLFMADLQRVFTNCKEYNAAESEYYKCANILEKFFFSKIKEAGLIDK
notes: Expressed in E. coli with an N-terminal poly-His tag that thrombin removed; residues left over from the vector are not described; 15N-labelled for the NMR titration; also called hsp/CAF bromodomain; bromodomain of P/CAF
B4: P/CAF bromodomain Tyr760Ala mutant, Q92831 719-832 (protein)
chain: SKEPRDPDQLYSTLKSILQQVKSHQSAWPFMEPVKRTEAPGAYEVIRFPMDLKTMSERLKNRYYVSKKLFMADLQRVFTNCKEYNAAESEYYKCANILEKFFFSKIKEAGLIDK
modifications: here or on the partner: acetyl-lysine (AcK) at Lys8
B5: P/CAF bromodomain Tyr809Ala mutant (other)
chain: SKEPRDPDQLYSTLKSILQQVKSHQSAWPFMEPVKRTEAPGYYEVIRFPMDLKTMSERLKNRYYVSKKLFMADLQRVFTNCKEYNAAESEAYKCANILEKFFFSKIKEAGLIDK
notes: Made by site-directed mutagenesis of the wild-type bromodomain construct
B6: P/CAF bromodomain Tyr809Ala mutant (other)
chain: SKEPRDPDQLYSTLKSILQQVKSHQSAWPFMEPVKRTEAPGYYEVIRFPMDLKTMSERLKNRYYVSKKLFMADLQRVFTNCKEYNAAESEAYKCANILEKFFFSKIKEAGLIDK
notes: Point mutant of the P/CAF bromodomain made by site-directed mutagenesis

Assays:
[1] = target: T1, lysine-acetylated histone H4 peptide …; assay: NMR titration, 15N-HSQC chemical shift changes against ligand concentration; conditions: remark: other sources report otherwise
[2] = target: T2, lysine-acetylated histone H4 peptide …; assay: as above
[3] = target: T3, lysine-acetylated histone H4 peptide …; assay: NMR titration, 15N-HSQC
[4] = target: T2, lysine-acetylated histone H4 peptide …; assay: NMR titration, 15N-HSQC chemical shift changes

| Binder | Kd [1] [mM] | also measured |
| --- | --- | --- |
| B1 | > 10 |  |
| B2 | > 10 |  |
| B3 |  | Kd [2]: 346 µM |
| B4 | > 10 |  |
| B5 |  | binding result [3]: no binding |
| B6 |  | binding result [4]: no binding |
